From patent publication US20240409645A1 (DUALYX, published 2024) come the findings set out here.

This assay deals with T1, human IL-2 receptor (IL-2Rα/IL-2Rβ/γc) (human, UniProt P01589 22-272; P14784 27-551; P31785 23-369).
T1 sequence 1: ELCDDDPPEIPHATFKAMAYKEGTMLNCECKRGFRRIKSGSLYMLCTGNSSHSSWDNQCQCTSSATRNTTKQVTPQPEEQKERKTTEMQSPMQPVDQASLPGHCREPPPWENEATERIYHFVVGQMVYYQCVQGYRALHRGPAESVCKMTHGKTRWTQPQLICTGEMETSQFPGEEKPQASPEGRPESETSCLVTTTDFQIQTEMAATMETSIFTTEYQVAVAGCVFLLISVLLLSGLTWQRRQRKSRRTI
T1 sequence 2: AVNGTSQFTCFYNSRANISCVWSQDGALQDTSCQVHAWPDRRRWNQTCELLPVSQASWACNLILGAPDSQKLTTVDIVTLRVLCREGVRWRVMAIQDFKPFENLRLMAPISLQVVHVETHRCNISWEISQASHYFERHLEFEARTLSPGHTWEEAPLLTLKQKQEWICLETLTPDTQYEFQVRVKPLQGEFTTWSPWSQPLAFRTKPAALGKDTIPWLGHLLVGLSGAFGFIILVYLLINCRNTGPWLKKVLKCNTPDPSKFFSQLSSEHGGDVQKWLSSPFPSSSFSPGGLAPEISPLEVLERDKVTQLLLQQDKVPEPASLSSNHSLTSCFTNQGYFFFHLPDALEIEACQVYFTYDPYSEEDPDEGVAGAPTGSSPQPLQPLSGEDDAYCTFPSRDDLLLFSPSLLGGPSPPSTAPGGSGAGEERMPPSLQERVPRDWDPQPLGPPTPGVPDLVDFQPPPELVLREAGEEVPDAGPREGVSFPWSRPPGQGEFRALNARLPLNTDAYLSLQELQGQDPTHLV
T1 sequence 3: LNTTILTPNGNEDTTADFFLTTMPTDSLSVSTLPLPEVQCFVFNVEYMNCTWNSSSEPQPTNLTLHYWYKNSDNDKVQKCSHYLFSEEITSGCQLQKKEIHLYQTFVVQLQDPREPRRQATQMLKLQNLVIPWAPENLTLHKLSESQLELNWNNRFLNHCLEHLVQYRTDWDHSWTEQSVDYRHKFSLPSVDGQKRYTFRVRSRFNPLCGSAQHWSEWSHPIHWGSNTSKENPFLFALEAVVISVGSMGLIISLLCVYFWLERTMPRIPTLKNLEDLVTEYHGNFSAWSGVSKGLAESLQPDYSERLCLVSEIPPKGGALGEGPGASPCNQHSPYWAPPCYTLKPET
Nature of the assay: cell-based or functional assay.

B1: DC00069 (other)
chain 1: EVQLVESGGGLVQTGGSLRLSCAASGGTFSRDAMAWFRQVPGKEREFVALISWSGATTNYADSVKGRFAISRDNGKNTVYLQMNRLKPADTAIYYCAADRRPMGSRSYFEPTEYDDWGQGTQVTVSSGGGGSGGGGSGGGGSQVQLVESGGGLVQPGGSLRLSCATSGFTFRNNFMSWVRQAPGKGLEWVSTISYGGESTTYAESVKGRFTISRDNAKNTLYLQMNNLKPEDTAVYYCAKATSYDSIRSGSRGQGTQVTVSSDKTHTCPPCPAPEAAGGPSVFLFPPKPKDTLMISRTPEVTCVVVDVSHEDPEVKFNWYVDGVEVHNAKTKPREEQYNSTYRVVSVLTVLHQDWLNGKEYKCKVSNKALGAPIEKTISKAKGQPREPQVYTLPPSRDELTKNQVSLTCLVKGFYPSDIAVEWESNGQPENNYKTTPPVLDSDGSFLLYSKLTVDKSRWQQGNVFSCSVMHEALHNHYTQKSLSLSPGK
chain 2: QVQLVESGGGLVQPGGSLRLSCATSGFTFRNNFMSWVRQAPGKGLEWVSTISYGGESTTYAESVKGRFTISRDNAKNTLYLQMNNLKPEDTAVYYCAKATSYDSIRSGSRGQGTQVTVSSGGGGSGGGGSGGGGSQVQLVESGGGLVQAGGSLTLSCAAPGRTFGTDVVGWFRQAPGKEREFVASISRSGDGIYYDDSVKGRFTISRNNAWNTVNLQMNSLKVEDTAVYYCAAGDGWSTYDYWGQGTQVTVSSGGGGSGGGGSGGGGSDKTHTCPPCPAPEAAGGPSVFLFPPKPKDTLMISRTPEVTCVVVDVSHEDPEVKFNWYVDGVEVHNAKTKPREEQYNSTYRVVSVLTVLHQDWLNGKEYKCKVSNKALGAPIEKTISKAKGQPREPQVYTLPPSRDELTKNQVSLTCLVKGFYPSDIAVEWESNGQPENNYKTTPPVLDSDGSFFLYSRLTVDKSRWQQGNVFSCSVMHEALHNHYTQKSLSLSPGK
On to B1, for which the “EC50 (nM) pSTAT5, NK, human PBMCs” value amounted to 0.234 nM; the “EC50 (nM) pSTAT5, Treg, human PBMCs” value came to 0.00119 nM; the “Fold Max signal (% pSTAT5+) Treg/NK” value was 7 fold; the “Max signal (% pSTAT5+), NK” value amounted to 12 % pSTAT5+. Besides, the “Max signal (% pSTAT5+), Treg” value came out at 87 % pSTAT5+ and the “fold EC50 NK/Treg” value worked out at 197 fold.

B2: DC00070 (other)
chain 1: EVQLVESGGGLVQTGGSLRLSCAASGGTFSRDAMAWFRQVPGKEREFVALISWSGATTNYADSVKGRFAISRDNGKNTVYLQMNRLKPADTAIYYCAADRRPMGSRSYFEPTEYDDWGQGTQVTVSSGGGGSGGGGSGGGGSQVQLVESGGGLVQPGGSLRLSCATSGFTFRNNFMSWVRQAPGKGLEWVSTISYGGESTTYAESVKGRFTISRDNAKNTLYLQMNNLKPEDTAVYYCAKATSYDSIRSGSRGQGTQVTVSSDKTHTCPPCPAPEAAGGPSVFLFPPKPKDTLMISRTPEVTCVVVDVSHEDPEVKFNWYVDGVEVHNAKTKPREEQYNSTYRVVSVLTVLHQDWLNGKEYKCKVSNKALGAPIEKTISKAKGQPREPQVYTLPPSRDELTKNQVSLTCLVKGFYPSDIAVEWESNGQPENNYKTTPPVLDSDGSFLLYSKLTVDKSRWQQGNVFSCSVMHEALHNHYTQKSLSLSPGK
chain 2: QVQLVESGGGLVQAGGSLTLSCAAPGRTFGTDVVGWFRQAPGKEREFVASISRSGDGIYYDDSVKGRFTISRNNAWNTVNLQMNSLKVEDTAVYYCAAGDGWSTYDYWGQGTQVTVSSGGGGSGGGGSGGGGSQVQLVESGGGLVQPGGSLRLSCATSGFTFRNNFMSWVRQAPGKGLEWVSTISYGGESTTYAESVKGRFTISRDNAKNTLYLQMNNLKPEDTAVYYCAKATSYDSIRSGSRGQGTQVTVSSDKTHTCPPCPAPEAAGGPSVFLFPPKPKDTLMISRTPEVTCVVVDVSHEDPEVKFNWYVDGVEVHNAKTKPREEQYNSTYRVVSVLTVLHQDWLNGKEYKCKVSNKALGAPIEKTISKAKGQPREPQVYTLPPSRDELTKNQVSLTCLVKGFYPSDIAVEWESNGQPENNYKTTPPVLDSDGSFFLYSRLTVDKSRWQQGNVFSCSVMHEALHNHYTQKSLSLSPGK
On to B2, for which the “EC50 (nM) pSTAT5, NK, human PBMCs” value amounted to 0.0538 nM; the “EC50 (nM) pSTAT5, Treg, human PBMCs” value came out at 0.497 pM; the “Fold Max signal (% pSTAT5+) Treg/NK” value came to 7 fold; the “Max signal (% pSTAT5+), NK” value was found to be 11 % pSTAT5+. In addition, the “Max signal (% pSTAT5+), Treg” value was determined as 80 % pSTAT5+ and the “fold EC50 NK/Treg” value turned out to be 108 fold.

B3: DC00039 (other)
chain 1: QVQLVESGGGLVQPGGSLRLSCATSGFTFRNNFMSWVRQAPGKGLEWVSTISYGGESTTYAESVKGRFTISRDNAKNTLYLQMNNLKPEDTAVYYCAKATSYDSIRSGSRGQGTQVTVSSDKTHTCPPCPAPEAAGGPSVFLFPPKPKDTLMISRTPEVTCVVVDVSHEDPEVKFNWYVDGVEVHNAKTKPREEQYNSTYRVVSVLTVLHQDWLNGKEYKCKVSNKALGAPIEKTISKAKGQPREPQVYTLPPSRDELTKNQVSLTCLVKGFYPSDIAVEWESNGQPENNYKTTPPVLDSDGSFLLYSKLTVDKSRWQQGNVFSCSVMHEALHNHYTQKSLSLSPGK
chain 2: EVQLVESGGGLVQTGGSLRLSCAASGGTFSRDAMAWFRQVPGKEREFVALISWSGATTNYADSVKGRFAISRDNGKNTVYLQMNRLKPADTAIYYCAADRRPMGSRSYFEPTEYDDWGQGTQVTVSSGGGGSGGGGSGGGGSQVQLVESGGGLVQPGGSLRLSCATSGFTFRNNFMSWVRQAPGKGLEWVSTISYGGESTTYAESVKGRFTISRDNAKNTLYLQMNNLKPEDTAVYYCAKATSYDSIRSGSRGQGTQVTVSSGGGGSGGGGSGGGGSQVQLVESGGGLVQAGGSLTLSCAAPGRTFGTDVVGWFRQAPGKEREFVASISRSGDGIYYDDSVKGRFTISRNNAWNTVNLQMNSLKVEDTAVYYCAAGDGWSTYDYWGQGTQVTVSSGGGGSGGGGSGGGGSDKTHTCPPCPAPEAAGGPSVFLFPPKPKDTLMISRTPEVTCVVVDVSHEDPEVKFNWYVDGVEVHNAKTKPREEQYNSTYRVVSVLTVLHQDWLNGKEYKCKVSNKALGAPIEKTISKAKGQPREPQVYTLPPSRDELTKNQVSLTCLVKGFYPSDIAVEWESNGQPENNYKTTPPVLDSDGSFFLYSRLTVDKSRWQQGNVFSCSVMHEALHNHYTQKSLSLSPGK
On to B3, for which the “EC50 (nM) pSTAT5, NK, human PBMCs” value was found to be 0.0315 nM; the “EC50 (nM) pSTAT5, Treg, human PBMCs” value was found to be 0.761 pM; the “Fold Max signal (% pSTAT5+) Treg/NK” value came to 11 fold; the “Max signal (% pSTAT5+), NK” value amounted to 4 % pSTAT5+. For the same molecule, the “Max signal (% pSTAT5+), Treg” value was found to be 46 % pSTAT5+ and the “fold EC50 NK/Treg” value worked out at 41 fold.

B4: DC00040 (other)
chain 1: QVQLVESGGGLVQPGGSLRLSCATSGFTFRNNFMSWVRQAPGKGLEWVSTISYGGESTTYAESVKGRFTISRDNAKNTLYLQMNNLKPEDTAVYYCAKATSYDSIRSGSRGQGTQVTVSSDKTHTCPPCPAPEAAGGPSVFLFPPKPKDTLMISRTPEVTCVVVDVSHEDPEVKFNWYVDGVEVHNAKTKPREEQYNSTYRVVSVLTVLHQDWLNGKEYKCKVSNKALGAPIEKTISKAKGQPREPQVYTLPPSRDELTKNQVSLTCLVKGFYPSDIAVEWESNGQPENNYKTTPPVLDSDGSFLLYSKLTVDKSRWQQGNVFSCSVMHEALHNHYTQKSLSLSPGK
chain 2: EVQLVESGGGLVQTGGSLRLSCAASGGTFSRDAMAWFRQVPGKEREFVALISWSGATTNYADSVKGRFAISRDNGKNTVYLQMNRLKPADTAIYYCAADRRPMGSRSYFEPTEYDDWGQGTQVTVSSGGGGSGGGGSGGGGSQVQLVESGGGLVQAGGSLTLSCAAPGRTFGTDVVGWFRQAPGKEREFVASISRSGDGIYYDDSVKGRFTISRNNAWNTVNLQMNSLKVEDTAVYYCAAGDGWSTYDYWGQGTQVTVSSGGGGSGGGGSGGGGSDKTHTCPPCPAPEAAGGPSVFLFPPKPKDTLMISRTPEVTCVVVDVSHEDPEVKFNWYVDGVEVHNAKTKPREEQYNSTYRVVSVLTVLHQDWLNGKEYKCKVSNKALGAPIEKTISKAKGQPREPQVYTLPPSRDELTKNQVSLTCLVKGFYPSDIAVEWESNGQPENNYKTTPPVLDSDGSFFLYSRLTVDKSRWQQGNVFSCSVMHEALHNHYTQKSLSLSPGK
Turning to B4, the “EC50 (nM) pSTAT5, NK, human PBMCs” value came out at 0.701 nM; the “EC50 (nM) pSTAT5, Treg, human PBMCs” value came out at 0.0158 nM; the “Fold Max signal (% pSTAT5+) Treg/NK” value amounted to 10 fold; the “Max signal (% pSTAT5+), NK” value came to 4 % pSTAT5+. For the same molecule, the “Max signal (% pSTAT5+), Treg” value was 43 % pSTAT5+ and the “fold EC50 NK/Treg” value amounted to 44 fold.
